# Reference: US20230159619A1, “COMPOSITIONS AND METHODS FOR REGULATING IMMUNE SYSTEM ACTIVITY” (Olema Pharmaceuticals, Inc., priority 2017, published 2023)
# Key:
# Assay type in all cases: cell-based, human
# [1] = tested on: NFAT-Luciferase reporter; assay: NFAT-Luciferase reporter assay with ZAP70dn(1-278) constructs (Example 10); details: Jurkat E6.1 cells, αTCR+αCD28, with or without endoxifen, compared to empty vector controls
# Source text: (§1) To provide a means for assessing immune pathway activity, a construct containing a reporter gene, such as firefly luciferase (Luc), under the control of an NFAT response element can be used, as described, e.g., in Example 3. In the present Example, Jurkat E6.1 cells were transiently transfected with an NFAT-Luciferase reporter construct as well as one of (a) empty vector; (b) an expression construct encoding ZAP70dn(1-278); (c) an expression construct encoding ZAP70dn(1-278)-ER(T2); and (d) an expression construct encoding ZAP70dn(1-278)-ER(T12). Transient transfections were performed using LTX and PLUS transfection reagent (ThermoFisher Scientific) according to manufacturer's protocols.
# A first set of transfected cells was treated in the absence or presence of 1:30 dilution of Immunocult CD3/CD28/CD2 tetrameric antibody mixture (StemCell Technologies, Canada), which stimulated T-cell activity. […] Luciferase activity (luminescence) was measured and reported as a percentage induction of NFAT-Luciferase.
# A further set of transfected cells was treated in the absence or presence of 0.25 μg/ml C305 (αTCR, Sigma-Aldrich) plus 2 μg/ml αCD28.2 (Biolegend), which stimulated T-cell activity. […] Luciferase activity (luminescence) was measured and reported in relative light units (RLU).
# [2] = tested on: NFAT-Luciferase reporter; assay: NFAT-Luciferase reporter assay with LCK(1-266) constructs (Example 11); details: Jurkat E6.1 cells, α-CD3 and α-CD28, with or without endoxifen, compared to empty vector controls
# Source text: as §1, with “assessing T cell” for “assessing immune pathway”, “reporter construct,” for “reporter construct”, “empty vector control;” for “empty vector;”, “encoding LCK(1-266); and” for “encoding ZAP70dn(1-278);”, “encoding LCK(1-266)-ER(T12).” for “encoding ZAP70dn(1-278)-ER(T2); and (d) an expression construct encoding ZAP70dn(1-278)-ER(T12).”
# Transfected cells were treated in the absence or presence of 1:80 dilution of Immunocult CD3/CD28 tetrameric antibody mixture (StemCell Technologies, Canada), which stimulated T-cell activity. Stimulated cells were then further treated with RPMI 1640 media plus 4.8% FBS stripped with charcoal dextran (ThermoFisher Scientific), either without Z-endoxifen or with 100 nM Z-endoxifen (Axon-Medchem). Luciferase activity (luminescence) was measured and reported as percent induction of NFAT-Luciferase.
# [3] = tested on: NFAT-Luciferase reporter; assay: NFAT-Luciferase reporter assay, endoxifen dose response (Example 4); details: Jurkat E6.1 cells, anti-TCR antibody clone 305, endoxifen 0.05-1000 nM, 6 hours
# Source text: To examine whether the concentration of endoxifen affected the level of inhibition of T cell activity by an endoxifen-responsive dominant negative Zap-70 polypeptide, Jurkat E6.1 cells (purchased from ATCC (Manassas, Va.)) were transiently transfected with an NFAT-Luciferase reporter construct and a test construct of (1) a vector encoding a dominant negative Zap70 moiety, as described in Example 2 (“Zap70dnm”), or (2) a vector encoding an endoxifen-responsive dominant negative Zap70 polypeptide, including an ER(T2) domain operatively linked to a dominant negative Zap70 moiety, as described in Example 1 (“Zap70dnm-ER(T2)”). The transient transfections were performed using LTX and PLUS transfection reagent (ThermoFisher Scientific) according to manufacturer's protocols.
# Transfected cells were treated with an anti-TCR antibody, clone 305, which stimulated T cell activity. […]
# (§2) After 6 hours, luciferase activity was assayed with Bright-Glo substrate according to manufacturer's protocols (Promega). Luminescence was detected on the Varioskan Lux (ThermoFisher Scientific) plate reader at a 1 second interval. The luminescence was measured and reported in relative light units (RLU). […]
# [4] = tested on: NFAT-Luciferase reporter; assay: NFAT-Luciferase reporter assay in transiently transfected Jurkat E6.1 cells (Example 3)
# Source text: One outcome of T cell activation is the expression of Nuclear Factor of Activated T cells (NFAT) transcription factors. Accordingly, a construct containing a reporter gene, such as firefly luciferase (Luc), under the control of an NFAT response element can be used to assess T cell activity. Such a construct can either be transiently transfected into cells (e.g., Jurkat cells, which are an immortalized line of human T cells) or stably integrated into a cell line (e.g., a derivative Jurkat cell line). These reporter genes can be used to measure activation, or inhibition, of T cell activation pathways.
# To examine whether an endoxifen-responsive dominant negative Zap-70 polypeptide could inhibit T cell activity resulting in NFAT-luciferase expression, Jurkat E6.1 cells (purchased from ATCC (Manassas, Va.)) were transiently transfected with an NFAT-Luciferase reporter construct and a test construct of (1) a control vector (“vector”), (2) a vector encoding a dominant negative Zap70 moiety, as described in Example 2 (“Zap70dnm”), or (3) a vector encoding an endoxifen-responsive dominant negative Zap70 polypeptide, including an ER(T2) domain operatively linked to a dominant negative Zap70 moiety, as described in Example 1 (“Zap70dnm-ER(T2)”). The transient transfections were performed using LTX and PLUS transfection reagent (ThermoFisher Scientific) according to manufacturer's protocols.
# Transfected cells were treated in the absence or presence of 1:30 Immunocult™ CD3/CD28/CD2 tetrameric antibody mixture (StemCell Technologies, Canada) (“α-TCR”), which stimulates T cell activity. […]
# as §2, with “19” for “6”
molecule,measurement,setting,value
"ZAP70dn(1-278): dominant negative signaling moiety, ZAP70 amino acids 1-278, lacks a functional kinase domain, SEQ ID NO: 2 (protein) MPDPAAHLPFFYGSISRAEAEEHLKLAGMADGLFLLRQCLRSLGGYVLSLVHDVRFHHFPIERQLNGTYAIAGGKAHCGPAELCEFYSRDPDGLPCNLRKPCNRPSGLEPQPGVFDCLRDAMVRDYVRQTWKLEGEALEQAIISQAPQVEKLIATTAHERMPWYHSSLTREEAERKLYSGAQTDGKFLLRPRKEQGTYALSLIYGKTVYHYLISQDKAGKYCIPEGTKFDTLWQLVEYLKLKADGLIYCLKEACPNSSASNASGAAAPTLPAHPSTLT",luciferase reporter expression (RLU),[1],substantially reduced expression of luciferase reporter
"LCK(1-266): dominant negative LCK signaling moiety, SEQ ID NO: 17 (protein) MGCGCSSHPEDDWMENIDVCENCHYPIVPLDGKGTLLIRNGSEVRDPLVTYEGSNPPASPLQDNLVIALHSYEPSHDGDLGFEKGEQLRILEQSGEWWKAQSLTTGQEGFIPFNFVAKANSLEPEPWFFKNLSRKDAERQLLAPGNTHGSFLIRESESTAGSFSLSVRDFDQNQGEVVKHYKIRNLDNGGFYISPRITFPGLHELVRHYTNASDGLCTRLSRPCQTQKPQKPWWEDEWEVPRETLKLVERLGAGQFGEVWMGYYNG",luciferase reporter expression (percent induction of NFAT-Luciferase),[2],substantially reduced expression of luciferase reporter
"Zap70dnm: polypeptide including a nuclear export signal and a dominant negative Zap-70 moiety, SEQ ID NO: 10 (protein) MNELALKLAGLDINKTMPDPAAHLPFFYGSISRAEAEEHLKLAGMADGLFLLRQCLRSLGGYVLSLVHDVRFHHFPIERQLNGTYAIAGGKAHCGPAELCEFYSRDPDGLPCNLRKPCNRPSGLEPQPGVFDCLRDAMVRDYVRQTWKLEGEALEQAIISQAPQVEKLIATTAHERMPWYHSSLTREEAERKLYSGAQTDGKFLLRPRKEQGTYALSLIYGKTVYHYLISQDKAGKYCIPEGTKFDTLWQLVEYLKLKADGLIYCLKEACPNSSASNASGAAAPTLPAHPSTLT",luciferase expression from the NFAT-luciferase construct,[3],low
same,luciferase expression from the NFAT-luciferase construct,[4]; vehicle (not treated with α-TCR or endoxifen),no luciferase expression was detected
same,luciferase expression from the NFAT-luciferase construct,"[4]; α-TCR plus 100 nM endoxifen, 19 hours",low and nearly equivalent to the luciferase expression observed from sample 5
same,luciferase expression from the NFAT-luciferase construct,"[4]; α-TCR, no endoxifen, 19 hours",low
